From patent US8795990B2, “Recombinant enzyme with altered feedback sensitivity” (Metabolic Explorer, priority 2004, dated 2014)
Changes are numbered by the printed parent chain. Names and notes keep the numbering of the source. Values after ≈ are worked out from the molar mass of the structure shown.

How the values were obtained:
E. coli = conditions: growth rate of E. coli; cited from earlier work
[1] = target: homoserine transsuccinylase enzyme MetA (Escherichia coli, UniProt P07623); conditions: in words; cited from earlier work
Sequence of homoserine transsuccinylase enzyme MetA (P07623 whole entry): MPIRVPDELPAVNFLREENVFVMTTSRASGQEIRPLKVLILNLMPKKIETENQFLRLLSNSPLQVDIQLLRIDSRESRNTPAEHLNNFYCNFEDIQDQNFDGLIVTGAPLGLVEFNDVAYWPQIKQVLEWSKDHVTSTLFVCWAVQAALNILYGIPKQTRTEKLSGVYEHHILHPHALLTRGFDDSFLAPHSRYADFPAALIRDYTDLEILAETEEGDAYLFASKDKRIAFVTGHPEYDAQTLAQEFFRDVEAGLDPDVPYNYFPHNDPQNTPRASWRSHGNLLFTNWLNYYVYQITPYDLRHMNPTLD

[2] = tested on: homoserine transsuccinylase; assay: Homoserine transsuccinylase activity in vitro in crude extracts, succinylhomoserine quantified by GC-MS, with or without methionine and S-adenosylmethionine; conditions: for MetA activity of clones in pTRC99A: alleles cloned in pTRC99A with an alanine between amino acid 1M and 2P
Procedure: The activity of homoserine transsuccinylase was determined in vitro E. coli strains carrying either wild-type or mutant-enzymes were cultured in rich medium with 2.5 g/l glucose and harvested at late log phase. Cells were resuspended in cold potassium phosphate buffer and sonicated on ice (Branson sonifier, 70W). After centrifugation, proteins contained in the supernatants were quantified (Bradford, 1976).
Ten μl of the extracts were incubated for 30 minutes at 25° C. with 30 mM homoserine and 4 mM succinyl-CoA. Methionine and/or S-adenosylmethionine were added as indicated. The succinylhomoserine produced by homoserine transsuccinylase enzymes was quantified by GC-MS after derivatization with tert-butyldimethylsilyltrifluoroacetamide (TBDMSTFA). L-Serine[1-13C] was included as an internal standard.

[3] = tested on: S-adenosylmethionine synthetase; assay: S-adenosylmethionine synthetase (MAT) activity in vitro in crude extracts, FIA-MS/MS; format: biochemical, E. coli; conditions: 10 mM methionine, 10 mM ATP, 37° C., 30 minutes
[4] = Methionine 0 mM, S-adenosylmethionine 0 mM, rich medium extracts
[5] = Methionine 0 mM, S-adenosylmethionine 0.1 mM
[6] = Methionine 0 mM, S-adenosylmethionine 1 mM
[7] = Methionine 10 mM, S-adenosylmethionine 0 mM
[8] = Methionine 10 mM, S-adenosylmethionine 0.1 mM
[9] = Methionine 10 mM, S-adenosylmethionine 1 mM

For CSCC[C@](C)(N)C(=O)O [α-methylmethionine], the “minimal concentration for a maximal inhibition” value (E. coli) is given as 5 µg/mL, the minimal inhibitory concentration (E. coli) is given as 1 µg/mL (≈ 6.13 µM) and the “inhibition of homoserine transsuccinylase enzyme MetA” value [1] is given as “potent inhibitor”.

B1: metA: wild-type E. coli homoserine transsuccinylase (metA gene, strain MG1655) (protein, UniProt P07623 2-309, looked up)
Homoserine …: PIRVPDELPAVNFLREENVFVMTTSRASGQEIRPLKVLILNLMPKKIETENQFLRLLSNSPLQVDIQLLRIDSRESRNTPAEHLNNFYCNFEDIQDQNFDGLIVTGAPLGLVEFNDVAYWPQIKQVLEWSKDHVTSTLFVCWAVQAALNILYGIPKQTRTEKLSGVYEHHILHPHALLTRGFDDSFLAPHSRYADFPAALIRDYTDLEILAETEEGDAYLFASKDKRIAFVTGHPEYDAQTLAQEFFRDVEAGLDPDVPYNYFPHNDPQNTPRASWRSHGNLLFTNWLNYYVYQITPYDLRHMNPTLD
B1 showed a Specific activity [2, 4] of 36.7 mUI/mg proteins, a Specific activity [2, 5] of 27.9 mUI/mg proteins and a Specific activity [2, 6] of 4.7 mUI/mg proteins. For the same molecule, the Specific activity [2, 7] was 0.4 mUI/mg proteins, the Specific activity [2, 8] was 0.2 mUI/mg proteins and the Specific activity [2, 9] was 0.1 mUI/mg proteins. The “MetA activity of clones in pTRC99A” value [2] was “vary low”.

B2: metA*11: mutant homoserine transsuccinylase allele, CAG exchanged for GAG, Q replaced by E (Q64E) (protein, UniProt P07623 2-309, looked up, variant Q64E)
Homoserine …: B1 Homoserine … with Q63E
Work on B2 yielded a Specific activity [2, 4] of 19.2 mUI/mg proteins, a Specific activity [2, 5] of 21.7 mUI/mg proteins and a Specific activity [2, 6] of 18.5 mUI/mg proteins. For the same molecule, the Specific activity [2, 7] was 18.7 mUI/mg proteins, the Specific activity [2, 8] was 16.9 mUI/mg proteins and the Specific activity [2, 9] was 2.7 mUI/mg proteins. For the same molecule, the “MetA activity of clones in pTRC99A” value [2] was “vary low”.

B3: MetK* T227I (protein, UniProt P0A817 2-384, looked up, variant T227I)
S-adenosylmethionine synthase: AKHLFTSESVSEGHPDKIADQISDAVLDAILEQDPKARVACETYVKTGMVLVGGEITTSAWVDIEEITRNTVREIGYVHSDMGFDANSCAVLSAIGKQSPDINQGVDRADPLEQGAGDQGLMFGYATNETDVLMPAPITYAHRLVQRQAEVRKNGTLPWLRPDAKSQVTFQYDDGKIVGIDAVVLSTQHSEEIDQKSLQEAVMEEIIKPILPAEWLTSATKFFINPIGRFVIGGPMGDCGLTGRKIIVDTYGGMARHGGGAFSGKDPSKVDRSAAYAARYVAKNIVAAGLADRCEIQVSYAIGVAEPTSIMVETFGTEKVPSEQLTLLVREFFDLRPYGLIQMLDLLHPIYKETAAYGHFGREHFPWEKTDKAQLLRDAAGLK
With B3 the “MAT (S-adenosylmethionine synthetase activity)” value (from here on “MAT”) [3] was 4.9 mUI/mg prot.

B4: MetK* R161C + P235S (protein, UniProt P0A817 2-384, looked up, variant R161C P235S)
S-adenosylmethionine synthase: B3 S-adenosylmethionine synthase with R161C, I227T, P235S
For B4, the “MAT” value [3] was 0.7 mUI/mg prot.

B5: MetK* G115S (protein, UniProt P0A817 2-384, looked up, variant G115S)
S-adenosylmethionine synthase: B3 S-adenosylmethionine synthase with G115S, I227T
For B5, the “MAT” value [3] was 0.4 mUI/mg prot.

B6: WT: wild-type E. coli S-adenosylmethionine synthetase (MetK) (protein, UniProt P0A817 2-384, looked up)
S-adenosylmethionine synthase: B3 S-adenosylmethionine synthase with I227T
For B6, the “MAT” value [3] was 7.5 mUI/mg prot.

B7: MetK* H189Y (protein, UniProt P0A817 2-384, looked up, variant H189Y)
S-adenosylmethionine synthase: B3 S-adenosylmethionine synthase with H189Y, I227T
In the case of B7, the “MAT” value [3] is reported as 0.6 mUI/mg prot.

B8: MetK* S59N + G105S (protein, UniProt P0A817 2-384, looked up, variant S59N G105S)
S-adenosylmethionine synthase: B3 S-adenosylmethionine synthase with S59N, G105S, I227T
With B8 the “MAT” value [3] was 2.9 mUI/mg prot.

B9: MetK* P137L (protein, UniProt P0A817 2-384, looked up, variant P137L)
S-adenosylmethionine synthase: B3 S-adenosylmethionine synthase with P137L, I227T
For B9, the “MAT” value [3] was 1.2 mUI/mg prot.

B10: MetK* G105S (protein, UniProt P0A817 2-384, looked up, variant G105S)
S-adenosylmethionine synthase: B3 S-adenosylmethionine synthase with G105S, I227T
For B10, the “MAT” value [3] was 2.8 mUI/mg prot.

B11: MetK* H143T (protein, UniProt P0A817 2-384, looked up, variant H143T)
S-adenosylmethionine synthase: B3 S-adenosylmethionine synthase with H142T, I227T
In the case of B11, the “MAT” value [3] is reported as 2.5 mUI/mg prot.
